# Patent US20150329863, “APTAMERS INHIBITING THE ENZYMATIC ACTIVITY OF TYROSINASE” (L V M H RECHERCHE, published 2015)
# T1: tyrosinase (endogenous, normal human melanocytes) (Homo sapiens) (UniProt P14679)
# T1 sequence: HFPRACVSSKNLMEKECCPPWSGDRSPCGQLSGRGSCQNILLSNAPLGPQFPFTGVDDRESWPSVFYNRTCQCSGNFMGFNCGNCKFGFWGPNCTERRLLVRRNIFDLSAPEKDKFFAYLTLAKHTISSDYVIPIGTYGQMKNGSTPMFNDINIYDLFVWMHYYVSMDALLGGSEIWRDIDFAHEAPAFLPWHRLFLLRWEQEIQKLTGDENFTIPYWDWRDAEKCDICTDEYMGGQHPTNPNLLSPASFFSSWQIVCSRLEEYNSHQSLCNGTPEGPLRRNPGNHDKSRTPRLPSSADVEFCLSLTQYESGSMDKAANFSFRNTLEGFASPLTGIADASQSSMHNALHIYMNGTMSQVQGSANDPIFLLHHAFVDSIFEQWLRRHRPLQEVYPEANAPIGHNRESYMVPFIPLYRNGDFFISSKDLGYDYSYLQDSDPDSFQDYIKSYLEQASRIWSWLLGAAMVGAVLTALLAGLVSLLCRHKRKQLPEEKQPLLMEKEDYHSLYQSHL
# T2: tyrosinase (TYR) (Homo sapiens, UniProt P14679 P14679:19-529)
# T2 sequence: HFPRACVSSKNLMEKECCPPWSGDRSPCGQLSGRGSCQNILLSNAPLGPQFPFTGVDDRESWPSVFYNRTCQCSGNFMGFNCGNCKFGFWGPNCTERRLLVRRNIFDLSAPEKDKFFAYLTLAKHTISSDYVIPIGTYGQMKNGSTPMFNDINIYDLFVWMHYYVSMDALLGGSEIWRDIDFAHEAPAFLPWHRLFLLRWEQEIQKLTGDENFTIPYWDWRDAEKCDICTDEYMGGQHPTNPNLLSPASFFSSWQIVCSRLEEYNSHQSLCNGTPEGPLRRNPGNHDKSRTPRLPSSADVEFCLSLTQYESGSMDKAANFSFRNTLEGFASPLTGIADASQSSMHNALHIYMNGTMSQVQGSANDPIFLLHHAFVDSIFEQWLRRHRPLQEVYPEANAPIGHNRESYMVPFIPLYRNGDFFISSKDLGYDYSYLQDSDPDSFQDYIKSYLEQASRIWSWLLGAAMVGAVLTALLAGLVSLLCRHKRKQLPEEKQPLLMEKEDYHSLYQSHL
# Tests used:
# [1] = target: T1, tyrosinase (endogenous, normal human melanocytes) (Homo sapiens); assay: cell_activity; conditions: 4-200 nM, no dose dependence; 72 h melanocyte treatment, L-DOPA oxidation
# tyrosinase (TYR) = target: T2, tyrosinase (TYR); assay: SPR; 16 RU at 500 nM and 42 RU at 1 uM tyrosinase on about 1000 RU immobilized biotinylated aptamer; PBS-Mg buffer, 23 C; conditions: tags: N-terminal GST tag, Abnova; label: biotin (SPR); predicted long imperfect stem-loop with 5-nt internal loop and 5-nt apical loop
# Protocol: All the experiments were carried out on a Biacore 3000 device with PBS—Mg buffer at 23° C. The biotinylated oligonucleotides—heated at 75° C. for 5 minutes, placed on ice for 5 minutes and then placed at room temperature for at least 5 minutes—were immobilized on streptavidin-coated sensor chips (XanTec bioanalytics). The oligonucleotides were injected at 100 nM for 4 minutes at 5 μl/min to reach 800 to 1000 RU.
# Tyrosinase and the GST-His control were injected at 500 nM and 1 μM at a rate of 20 μl/min at 23° C. The same injections were carried out with PBS—Mg buffer and tyrosinase storage buffer to subtract the effects of the buffer from the specific sensorgram.
# The binding of this candidate, T10.1, and of truncated versions derived from the full-length candidate (Table 1) was investigated by surface plasmon resonance (SPR). About 1000 resonance units (RU) of biotinylated candidate T10.1 were immobilized and tyrosinase was injected at 500 nM or 1 μM. Signals of 16 and 42 RU were detected for 500 nM and 1 μM, respectively, indicating interaction between candidate T10.1 and tyrosinase (FIG. 2).
Molecule,activity [1] [% inhibition],binding result (tyrosinase (TYR))
GCCTGTTGTGAGCCTCCTGTCGAANNNNNNNNNNNNNNNNNNNNNNNNNNNNNNTTGAGCGTTTATTCTTGTCTCCC [round 10 population],> 75,
T10.1 (ssDNA) DNA: GCCTGTTGTGAGCCTCCTGTCGAACGCAATGGGCGCAGATTGGAAGGCCTAGCATTGAGCGTTTATTCTTGTCTCCC,,binds
